Measurements taken from publication PMC13031064.

B1: CYP76AH1 probe (dsDNA)
DNA 1: TATAATAGAACATTTGGGCGATGCTATATAATAGAACATTTGGGCGATGCTA
DNA 2: TAGCATCGCCCAAATGTTCTATTATATAGCATCGCCCAAATGTTCTATTATA
B2: DXS2 probe (dsDNA)
DNA 1: TAAATCCTGACATTTGAATAGTATATTAAATCCTGACATTTGAATAGTATAT
DNA 2: ATATACTATTCAAATGTCAGGATTTAATATACTATTCAAATGTCAGGATTTA
B3: CPS1 probe (dsDNA)
DNA 1: AATCATTTTTCATTTGACTGCCAAGGTAATCATTTTTCATTTGACTGCCAAGGT
DNA 2: ACCTTGGCAGTCAAATGAAAAATGATTACCTTGGCAGTCAAATGAAAAATGATT
B4: KSL1 probe (dsDNA)
DNA 1: TGCATCATCTCATTTGGAGTTTAAAATGCATCATCTCATTTGGAGTTTAAAA
DNA 2: TTTTAAACTCCAAATGAGATGATGCATTTTAAACTCCAAATGAGATGATGCA

molecular target: bHLH130-His (SmbHLH130) (Salvia miltiorrhiza, UniProt A0A0H3Y8V8 1-394); test: EMSA

Binding result, binds:
B1
B2
B3
B4
